To fix the notation:
B4: ANC-2H01 initial two-hybrid clone (part of ANC-2H01 fused to the GAL4-AD, plasmid pGAD10ANC2H01) (other, not shown: large carriers)
chain: IADGFNGIFSDHCYSVCSMRQPDLKYFDNKDDDSDTETSNDLPKFADGIKARNRNQNYLVPSPVLRILDHTAFSTEKSADIVICDEECDSPESVNQQTQEESPIEVHTAEDVPIAVEVHAISEDYDIETENNSSESLQDQTDEEPPAKLCKILDKSQALNVTAQQKWPLLRANSSGLYKCELCEFNSKYFSDLKQHMILKHKRTDSNVCRVCKESFSTNMLLIEHAKLHEEDPYICKYCDYKTVIFENLSQHIADTHFSDHLYWCEQCDVQFSSSSELYLHFQEHSCDEQYLCQFCEHETNDPEDLHSHVVNEHACKLIELSDKYNNGEHGQYSLLSKITFDKCKNFFVCQVCGFRSRLHTNVNRHVAIEHTKIFPHVCDDCGKGFSSMLEYCKHLNSHLSEGIYLCQYCEYSTGQIEDLKIHLDFKHSADLPHKCSDCLMRFGNERELISHLPVHETT
notes: 27-485 is derived from 459 of 485 residues; also called ANC-2H01 clone; initial ANC-2H01 two-hybrid clone
B8: αN-catenin residues 4-193 fused to the GAL4-DBD (plasmid pGBT9ANCTN(EcoRI-BamHI)) (other, UniProt P04386 1-147, looked up)
chain: MKLLSSIEQACDICRLKKLKCSKEKPKCAKCLKNNWECRYSPKTKRSPLTRAHLTEVESRLERLEQLFLLIFPREDLDMILKMDSLQDIKALLTGLFVQDNVNKDAVTDRLASVETDMPLTLRQHRISATSSSEESSNKGQRQLTVSATSPIILKWDPKSLEIRTLTVERLLEPLVTQVTTLVNTSNKGPSGKKKGRSKKAHVLAASVEQATQNFLEKGEQIAKESQDLKEELVAAVEDVRKQGETMRIASSEFADDPCSSVKRGTMVRAARALLSAVTRLLILADMADVMRLLSHLKIVEEALEAVKNATNEQDLANRFKEFGKEMVKLNYVAARR
B10: αN-catenin residues 535-787 fused to the GAL4-DBD (plasmid pGBT9ANCTN(PstI 1618-2375)) (other, UniProt P04386 1-147, looked up)
chain: MKLLSSIEQACDICRLKKLKCSKEKPKCAKCLKNNWECRYSPKTKRSPLTRAHLTEVESRLERLEQLFLLIFPREDLDMILKMDSLQDIKALLTGLFVQDNVNKDAVTDRLASVETDMPLTLRQHRISATSSSEESSNKGQRQLTVSTLDRTAGAIRGRAARVIHIINAEMENYEAGVYTEKVLEATKLLSETVMPRFAEQVEVAIEALSANVPQPFEENEFIDASRLVYDGVRDIRKAVLMIRTPEELEDDSDFEQEDYDVRSRTSVQTEDDQLIAGQSARAIMAQLPQEEKAKIAEQVEIFHQEKSKLDAEVAKWDDSGNDIIVLAKQMCMIMMEMTDFTRGKGPLKNTSDVINAAKKIAEAGSRMDKLARAVADQCPDSACKQDLLAYLQRIALYCH

Assay [1] concerns the target T1, human αN-catenin fused to the GAL4-DBD in pGBT9 (plasmid pGBT9ANCTN) (human, UniProt P04386 1-147; P26232 4-905, limits assumed).
T1 construct: Construction of pGBT9ANCTN is not described; also called pGBT9αNCTN; pGBT9-αNCTN
Put plainly: yeast two-hybrid, strain Y190 (FIG. 16).

For assay [2], the target named is T2, human αE-catenin (full-length; expressed from pJ6αECTN in HEK293T cells, also endogenous in HEK293T) (human, UniProt P35221 1-906).
T2 construct: also called PJ6αECTN(37-3433); pJ6αE-catenin
T2 sequence (looked up): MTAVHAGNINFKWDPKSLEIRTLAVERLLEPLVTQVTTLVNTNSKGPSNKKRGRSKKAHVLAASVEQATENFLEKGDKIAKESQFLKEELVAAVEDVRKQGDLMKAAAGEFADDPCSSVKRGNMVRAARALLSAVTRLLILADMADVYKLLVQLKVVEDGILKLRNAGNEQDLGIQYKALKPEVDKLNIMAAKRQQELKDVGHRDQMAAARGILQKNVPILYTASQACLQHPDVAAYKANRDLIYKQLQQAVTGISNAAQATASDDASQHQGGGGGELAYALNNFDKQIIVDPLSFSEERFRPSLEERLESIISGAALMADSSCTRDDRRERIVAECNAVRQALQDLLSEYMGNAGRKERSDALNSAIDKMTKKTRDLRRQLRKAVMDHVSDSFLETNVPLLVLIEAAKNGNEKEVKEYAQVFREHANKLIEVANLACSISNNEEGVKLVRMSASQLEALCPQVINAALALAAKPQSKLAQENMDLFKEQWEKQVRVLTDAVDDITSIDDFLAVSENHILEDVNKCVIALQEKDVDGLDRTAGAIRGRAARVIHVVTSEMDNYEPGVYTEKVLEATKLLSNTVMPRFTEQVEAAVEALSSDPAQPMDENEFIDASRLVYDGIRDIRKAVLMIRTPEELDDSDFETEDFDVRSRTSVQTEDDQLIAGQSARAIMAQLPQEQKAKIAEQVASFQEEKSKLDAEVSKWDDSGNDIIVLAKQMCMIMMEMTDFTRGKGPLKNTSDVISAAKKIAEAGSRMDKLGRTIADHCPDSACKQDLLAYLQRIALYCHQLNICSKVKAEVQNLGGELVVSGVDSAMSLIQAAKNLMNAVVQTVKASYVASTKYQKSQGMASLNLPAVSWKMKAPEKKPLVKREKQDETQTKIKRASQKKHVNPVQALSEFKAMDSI
In words: co-immunoprecipitation from cotransfected HEK293T cells, Western blot. In general terms: In western blotting, separated proteins are transferred to a membrane and probed.

Assay [3] concerns the target T3, human αE-catenin fused to the GAL4-DBD (plasmid pGBT9αECTN) (human, UniProt P04386 1-147; P35221 1-906, limits assumed).
T3 construct: also called full-length αE-catenin
Put plainly: yeast two-hybrid, strain HF7c (FIG. 4).

For assay [4], the target named is B8. In words: yeast two-hybrid (FIG. 4).
Assay [5] deals with αN-catenin residues 4-535 fused to the GAL4-DBD (plasmid pGBT9ANCTN(EcoRI-PstI)) (human, UniProt P04386 1-147; P26232 4-535). In words: yeast two-hybrid (FIG. 4).
The target of assay [6] is B10. Put plainly: yeast two-hybrid (FIG. 4).
For assay [7], the target named is T1, human αN-catenin fused to the GAL4-DBD …. Put plainly: yeast two-hybrid (FIG. 4).
The target of assay [8] is T4, αN-catenin residues 543-906 fused to the GAL4-DBD (plasmid pGBT9ANCTN-(XhoI-SalI)) (human, UniProt P04386 1-147; P26232 543-906).
T4 construct: the UniProt canonical isoform differs near the C-terminus
In words: yeast two-hybrid (FIG. 4).

The target in assay [9] is B4. In words: yeast two-hybrid (FIG. 4).

B1: zinc fingers 4 to 5 of ANC-2H01 fused to the GAL4-AD (plasmid pACT2ANC2H01-ZF4-5) (other, not shown: large carriers)
chain: LYWCEQCDVQFSSSSELYLHFQEHSCDEQYLCQFCEHETNDPEDLHSHVVNEHACKLIELSDK
notes: also called pACT2ANC2H01Zn4-5
On to B1, for which, in assay [1], the binding result is given as “no binding”.

B2: E-tagged full-length ANC-2H01 protein (expression plasmid pEFBOSANC-2H01E), expressed in HEK293T cells (other)
chain: MNEYPKKRKRKTLHPSRYSDSSGISRIADGFNGIFSDHCYSVCSMRQPDLKYFDNKDDDSDTETSNDLPKFADGIKARNRNQNYLVPSPVLRILDHTAFSTEKSADIVICDEECDSPESVNQQTQEESPIEVHTAEDVPIAVEVHAISEDYDIETENNSSESLQDQTDEEPPAKLCKILDKSQALNVTAQQKWPLLRANSSGLYKCELCEFNSKYFSDLKQHMILKHKRTDSNVCRVCKESFSTNMLLIEHAKLHEEDPYICKYCDYKTVIFENLSQHIADTHFSDHLYWCEQCDVQFSSSSELYLHFQEHSCDEQYLCQFCEHETNDPEDLHSHVVNEHACKLIELSDKYNNGEHGQYSLLSKITFDKCKNFFVCQVCGFRSRLHTNVNRHVAIEHTKIFPHVCDDCGKGFSSMLEYCKHLNSHLSEGIYLCQYCEYSTGQIEDLKIHLDFKHSADLPHKCSDCLMRFGNERELISHLPVHETT
notes: also called pEFBOS-EANC-2H01; E-tagged ANC-2H01; not shown: E-tag derived from plasmid pCANTAB5E (Pharmacia), at the amino-terminal side
In the case of B2, the binding result in [2] is “no binding”.

B3: ANC-2H01/500 (amino-terminal part of ANC-2H01 lacking any functional zinc finger, fused to the GAL4-AD in pGAD10) (other, not shown: large carriers)
chain: IADGFNGIFSDHCYSVCSMRQPDLKYFDNKDDDSDTETSNDLPKFADGIKARNRNQNYLVPSPVLRILDHTAFSTEKSADIVICDEECDSPESVNQQTQEESPIEVHTAEDVPIAVEVHAISEDYDIETENNSSESLQDQTDEEPPAKLCKILDKSQALNVTAQQKW
notes: whole entry named, only the stated part stood in the assay
For B3, the binding result in [3], in [4], in assay [5], in [6], in [7] and in assay [8] was “no binding” in each case.

Take B4: the binding result in [3] and in [8] was “no binding” each time.

B5: zinc fingers 1 to 3 of ANC-2H01 fused to the GAL4-AD (plasmid pACT2ANC2H01ZF1-3) (other, not shown: large carriers)
chain: LYKCELCEFNSKYFSDLKQHMILKHKRTDSNVCRVCKESFSTNMLLIEHAKLHEEDPYICKYCDYKTVIFENLSQHIADTHFSDHL
For B5, the binding result in assay [1] is “no binding”.

B6: ANC-2H01/BamHI (amino-terminal part of the ANC-2H01 clone plus two of the nine zinc fingers, fused to the GAL4-AD in pGAD10) (other, not shown: large carriers)
chain: IADGFNGIFSDHCYSVCSMRQPDLKYFDNKDDDSDTETSNDLPKFADGIKARNRNQNYLVPSPVLRILDHTAFSTEKSADIVICDEECDSPESVNQQTQEESPIEVHTAEDVPIAVEVHAISEDYDIETENNSSESLQDQTDEEPPAKLCKILDKSQALNVTAQQKWPLLRANSSGLYKCELCEFNSKYFSDLKQHMILKHKRTDSNVCRVCKESFSTNMLLIEHAKLHEEDP
notes: 700-bp BamHI fragment of the initial clone; only the stated part stood in the assay; also called pGAD10ANC-2H01/BamHI
Consider B6, for which the binding result in [3], in assay [4], in assay [5], in assay [6], in assay [7] and in assay [8] was “no binding” each time.

B7: ANC-2H01/600 (amino-terminal part of the initial ANC-2H01 plus half of the first zinc finger, fused to the GAL4-AD in pGAD10) (other, not shown: large carriers)
chain: IADGFNGIFSDHCYSVCSMRQPDLKYFDNKDDDSDTETSNDLPKFADGIKARNRNQNYLVPSPVLRILDHTAFSTEKSADIVICDEECDSPESVNQQTQEESPIEVHTAEDVPIAVEVHAISEDYDIETENNSSESLQDQTDEEPPAKLCKILDKSQALNVTAQQKWPLLRANSSGLYKCELCEFNSKY
notes: as for B3
On to B7, for which the binding result in assay [3], in assay [4], in assay [5], in [6], in assay [7] and in [8] was “no binding” each time.

As for B8, the binding result in assay [9] is “no binding”.

B9: zinc fingers 1 to 5 of ANC-2H01 fused to the GAL4-AD (plasmid pACT2ANC2H01ZF1-5) (other, not shown: large carriers)
chain: LYKCELCEFNSKYFSDLKQHMILKHKRTDSNVCRVCKESFSTNMLLIEHAKLHEEDPYICKYCDYKTVIFENLSQHIADTHFSDHLYWCEQCDVQFSSSSELYLHFQEHSCDEQYLCQFCEHETNDPEDLHSHVVNEHACKLIELSDK
In the case of B9, the binding result in assay [1] is recorded as “no binding”.

Regarding B10, the binding result in [9] is “no binding”.
